Assay results: the Immune Epitope Database (IEDB)
pKd: −log10 of the molar value.

Tests used:
Assay in all cases: IEDB peptide-MHC binding, purified MHC/competitive/fluorescence; filed as Kd, often an IC50 or EC50 that approximates it; ≥ and ≤ were set here for values at or beyond the usual limits of such assays
Conditions in all cases: source organism: Plasmodium falciparum 3D7
HLA-B*44:02 = target: HLA-B*44:02
HLA-A*03:01 = target: HLA-A*03:01
HLA-A*01:01 = target: HLA-A*01:01
HLA-A*24:02 = target: HLA-A*24:02
HLA-A*02:01 = target: HLA-A*02:01
HLA-B*07:02 = target: HLA-B*07:02

AEISRNDLI
pKd (HLA-B*44:02): 5.34

ALNLFFQNK
pKd (HLA-A*03:01): 5.94

ASFSASTGY
pKd (HLA-A*03:01): 5.63
pKd (HLA-A*01:01): ≤ 3.00
pKd (HLA-B*44:02): ≤ 4.50

CRDKTSALY
pKd (HLA-A*01:01): ≤ 3.00

DDTFEVYSEY
pKd (HLA-A*01:01): ≤ 3.00
pKd (HLA-B*44:02): ≤ 3.00

DENLKAIQI
pKd (HLA-B*44:02): ≤ 4.04

DSDDLKESY
pKd (HLA-A*01:01): 5.58

DTFEVYSEY
pKd (HLA-A*03:01): ≤ 3.00
pKd (HLA-A*01:01): ≤ 3.00

EENLFEWSKT
pKd (HLA-B*44:02): ≤ 3.00

EWLKTCKYYC
pKd (HLA-A*24:02): ≤ 3.24

FCFSFLKSSK
pKd (HLA-A*03:01): 5.04

FDNSGISLL
pKd (HLA-B*44:02): ≤ 3.00
pKd (HLA-A*02:01): ≤ 3.64

FIDPQTEMFK
pKd (HLA-A*03:01): 5.09
pKd (HLA-A*01:01): ≤ 4.33

FLENFNFPL
pKd (HLA-A*01:01): ≤ 3.00
pKd (HLA-A*02:01): 5.43

FLLNLLNEHV
pKd (HLA-A*02:01): 5.77

FPKLLNKPSL
pKd (HLA-B*07:02): ≤ 4.14

FPPNTFDAL
pKd (HLA-B*07:02): 5.56

FTNVNQFFK
pKd (HLA-A*03:01): 6.04
pKd (HLA-A*01:01): ≤ 3.00

GIANDLSTL
pKd (HLA-A*02:01): 5.24

GLSPHDTMQK
pKd (HLA-A*03:01): 5.96

HPFLKSGFTF
pKd (HLA-B*07:02): 6.65
pKd (HLA-B*44:02): ≤ 3.00
pKd (HLA-A*24:02): 4.98

HPKYRNFKF
pKd (HLA-B*07:02): 6.47

HPMPINIKL
pKd (HLA-B*07:02): 6.77

HYGINPVQL
pKd (HLA-A*24:02): 5.17

HYNTYKNRVF
pKd (HLA-A*24:02): 5.52

IENNLYERL
pKd (HLA-B*44:02): ≤ 4.22

ILISRLTLK
pKd (HLA-A*03:01): 6.66

ILYKNIDCV
pKd (HLA-A*02:01): 5.85

IPPQVFDYPI
pKd (HLA-B*07:02): ≤ 3.61

ITNKNKVTIY
pKd (HLA-A*03:01): 5.06
pKd (HLA-A*01:01): ≤ 3.00

IWYKYTESDF
pKd (HLA-A*24:02): 5.95

IYGKGGFQF
pKd (HLA-A*24:02): 6.79

KEDDTFEVY
pKd (HLA-A*01:01): ≤ 3.00

KEEKEINDEY
pKd (HLA-B*44:02): ≤ 3.00

KLPPLLNEI
pKd (HLA-A*02:01): 5.57
pKd (HLA-A*24:02): 7.05

KLYSINSKSI
pKd (HLA-B*07:02): ≤ 3.65
pKd (HLA-A*02:01): ≤ 4.24

KMKSDQYPI
pKd (HLA-A*02:01): 5.51
pKd (HLA-A*24:02): 5.16

KNYDNYNMK
pKd (HLA-A*03:01): 5.60

KPNFWRFQDY
pKd (HLA-B*07:02): ≤ 3.00

KTCKYYCFK
pKd (HLA-A*03:01): ≤ 3.93

KYDPRISGW
pKd (HLA-A*24:02): 5.30

LFGDENFSF
pKd (HLA-A*24:02): 5.23

LISRLTLKY
pKd (HLA-A*01:01): 4.94

LISTDIIFL
pKd (HLA-A*02:01): 6.21

LLFQKAANL
pKd (HLA-A*02:01): 5.73

LLNSDRRDL
pKd (HLA-B*07:02): 6.70

LPIEPKKLA
pKd (HLA-B*07:02): ≤ 3.25

LSSNIENIY
pKd (HLA-A*01:01): ≤ 4.53

LTHKYNEFV
pKd (HLA-A*01:01): ≤ 3.76
pKd (HLA-A*02:01): 5.62

LTMKMINNK
pKd (HLA-A*03:01): 6.33

MDFPKLLNK
pKd (HLA-A*03:01): 5.68

MENEDVEFI
pKd (HLA-B*44:02): ≤ 4.43

MYHNKEFDF
pKd (HLA-A*24:02): 5.35

NEEIIDLLNL
pKd (HLA-B*44:02): ≤ 3.36

NENNTTYQY
pKd (HLA-B*44:02): 4.74

NLFEWSKTV
pKd (HLA-A*02:01): 5.79

NLFFQNKSI
pKd (HLA-A*02:01): ≤ 3.00

NLNLCGKYTK
pKd (HLA-A*03:01): ≤ 3.00

NMNYKQNNF
pKd (HLA-A*24:02): 4.83

NMYQQNIPL
pKd (HLA-A*02:01): ≤ 3.48

NNNFRNNMY
pKd (HLA-A*01:01): ≤ 3.00

NPVQLKSKF
pKd (HLA-B*07:02): ≤ 4.22

NSDKLDLIY
pKd (HLA-A*01:01): 6.06

NSPNVNKRY
pKd (HLA-A*01:01): ≤ 3.00

NTFDALYYV
pKd (HLA-A*01:01): ≤ 3.00
pKd (HLA-A*02:01): 5.06

NTVKCPNDY
pKd (HLA-A*01:01): ≤ 3.55

NYKQNNFPF
pKd (HLA-A*24:02): 5.02

NYNNDQYNI
pKd (HLA-A*24:02): 5.18

PFLKSGFTF
pKd (HLA-A*24:02): 5.08

QVFDYPIEK
pKd (HLA-A*03:01): 5.80

RISGWKGDNK
pKd (HLA-A*03:01): 6.26

RLNLFCFSF
pKd (HLA-B*44:02): ≤ 3.00
pKd (HLA-A*24:02): 4.96

RLNLFCFSFL
pKd (HLA-A*03:01): 5.21
pKd (HLA-B*44:02): ≤ 3.38
pKd (HLA-A*02:01): ≤ 3.79

RLNNRSIYK
pKd (HLA-A*03:01): 6.65

RNIISKHTSV
pKd (HLA-B*07:02): ≤ 3.30

RSKKTFLVK
pKd (HLA-A*03:01): 6.39

RSSGSTFSIK
pKd (HLA-A*03:01): 6.49

SESTSTYNT
pKd (HLA-B*44:02): ≤ 3.99

SHPKYRNFKF
pKd (HLA-A*24:02): 4.78

SIASKNLMWV
pKd (HLA-B*07:02): ≤ 3.00
pKd (HLA-A*03:01): ≤ 3.00
pKd (HLA-A*02:01): ≤ 3.55

SILISRLTL
pKd (HLA-B*44:02): ≤ 3.00

SISDYTKSL
pKd (HLA-A*02:01): ≤ 3.45

SKHPFLKSGF
pKd (HLA-B*44:02): ≤ 3.00

SLTHKYNEF
pKd (HLA-A*24:02): 4.90

SLTHKYNEFV
pKd (HLA-A*02:01): ≤ 3.74

SMTNIPMNV
pKd (HLA-A*02:01): 6.61

SPHDTMQKDD
pKd (HLA-B*07:02): ≤ 3.00

SSANDEQSY
pKd (HLA-A*01:01): ≤ 4.19

STDIIFLTMK
pKd (HLA-A*03:01): 5.06
pKd (HLA-A*01:01): ≤ 3.00

TEMFKLRLNL
pKd (HLA-B*07:02): ≤ 3.00
pKd (HLA-B*44:02): ≤ 4.26
pKd (HLA-A*24:02): ≤ 4.24

TEYFKNKNM
pKd (HLA-B*44:02): ≤ 4.50

TIYGKGGFQF
pKd (HLA-B*07:02): ≤ 3.96

TMANQNMNY
pKd (HLA-A*03:01): 6.03
pKd (HLA-A*01:01): 5.70

TMANQNMNYK
pKd (HLA-A*03:01): 6.68

TSKQGSSNKY
pKd (HLA-A*01:01): ≤ 3.00

TTFFESVSY
pKd (HLA-A*03:01): ≤ 3.18
pKd (HLA-A*01:01): ≤ 3.47

TYSIYTNFKN
pKd (HLA-A*24:02): ≤ 4.58

VIHYGINPV
pKd (HLA-A*02:01): 5.77

WLNNDIYNV
pKd (HLA-A*02:01): 6.80

YESQLGGKI
pKd (HLA-B*44:02): ≤ 4.18

YGKGGFQFVF
pKd (HLA-A*24:02): 6.64

YITNKNKVTI
pKd (HLA-A*02:01): ≤ 3.00

YPIEKLGHV
pKd (HLA-B*07:02): 6.59

YTIGLPPYI
pKd (HLA-A*02:01): 5.61
pKd (HLA-A*24:02): 5.18

YYPIIRKQF
pKd (HLA-A*24:02): 7.00
